US20250051433A1 (INMAGENE PTE, published 2025)
Read-outs that look alike come from different tables or passages of the source.

Legend:
[1] = target: T1, human long form TSLP expressed on cell membrane; assay: FACS on cells expressing the membrane human long-form TSLP fusion protein, MFI; unit taken from the concentration axis
T1 construct: also called membrane long-form huTSLP fusion protein; membrane long-form TSLP fusion protein

[2] = target: T1, human long form TSLP expressed on cell …; assay: as above; remark: listed apart in the source
[3] = target: T2, human long-form TSLP protein (Acro, tsp-h5255 or tsp-h52ha) (human, UniProt Q969D9 29-159); assay: ELISA on coated human long-form TSLP, OD450; unit taken from the concentration axis
T2 construct: If it was tsp-h52ha, this is the same molecule as m12 (His-tagged); also called human TSLP protein
T2 sequence (Q969D9 29-159 R127A/R130A limits assumed): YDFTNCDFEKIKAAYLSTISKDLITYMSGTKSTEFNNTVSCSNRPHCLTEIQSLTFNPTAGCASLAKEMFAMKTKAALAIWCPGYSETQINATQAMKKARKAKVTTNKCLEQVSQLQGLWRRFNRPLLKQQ

[4] = target: T3, membrane short-form huTSLP fusion protein (human); assay: FACS on cells expressing membrane short-form huTSLP, MFI; ambiguous fit of a flat curve (Bottom 895.5, Top 876.2), see non_binding; unit taken from the concentration axis
T3 construct: also called human short form TSLP expressed on cell membrane
T3 sequence (chain, as listed by the source limits assumed): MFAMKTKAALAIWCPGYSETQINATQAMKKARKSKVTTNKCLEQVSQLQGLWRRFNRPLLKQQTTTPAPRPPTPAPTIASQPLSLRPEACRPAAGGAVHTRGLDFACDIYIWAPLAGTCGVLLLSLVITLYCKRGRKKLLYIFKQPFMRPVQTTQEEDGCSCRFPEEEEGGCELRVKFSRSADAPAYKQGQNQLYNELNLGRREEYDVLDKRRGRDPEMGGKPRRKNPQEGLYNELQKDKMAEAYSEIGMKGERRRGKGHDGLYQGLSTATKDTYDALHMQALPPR

[5] = target: T2, human long-form TSLP protein (Acro, …); assay: ELISA on coated human long-form TSLP, OD450; unit taken from the concentration axis; remark: listed apart in the source
[6] = target: T4, cynomolgus long-form TSLP protein (ACRO, tsp-c52h8) (cynomolgus monkey, UniProt A0A7N9CAT7 29-159); assay: ELISA on coated cynomolgus long-form TSLP, OD450; ambiguous fit of a flat curve (Bottom 0.06295, Top ~ 145.1), see non_binding; unit taken from the concentration axis
T4 construct: also called monkey long-form TSLP; Cyno TSLP
T4 sequence: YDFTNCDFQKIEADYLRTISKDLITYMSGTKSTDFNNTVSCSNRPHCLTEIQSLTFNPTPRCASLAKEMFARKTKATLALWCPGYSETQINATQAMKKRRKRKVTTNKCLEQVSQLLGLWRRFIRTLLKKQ

[7] = target: T2, human long-form TSLP protein (Acro, …); assay: BLI (Gator, HFC probe), antibody loaded at 10 ug/ml, TSLP at 50 to 1.56 nM
[8] = target: T5, mouse long-form TSLP protein (ACRO, tsp-m52h8) (mouse, UniProt Q9JIE6 20-140); assay: ELISA on coated mouse long-form TSLP
T5 construct: Bought; also called mouse TSLP
T5 sequence (looked up): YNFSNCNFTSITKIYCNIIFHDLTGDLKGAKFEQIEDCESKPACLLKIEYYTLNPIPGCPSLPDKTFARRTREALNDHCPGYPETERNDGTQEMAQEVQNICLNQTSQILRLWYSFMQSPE

[9] = target: T3, membrane short-form huTSLP fusion …; assay: FACS on cells expressing membrane short-form huTSLP, MFI; ambiguous fit of a flat curve (Bottom 712.4, Top 749.3), see non_binding; unit taken from the concentration axis
[10] = target: T4, cynomolgus long-form TSLP protein …; assay: ELISA on coated cynomolgus long-form TSLP, OD450; ambiguous fit of a flat curve (Bottom 0.06800, Top ~ 0.8608), see non_binding; unit taken from the concentration axis
[11] = target: T1, human long form TSLP expressed on cell …; assay: FACS on cells expressing the membrane human long-form TSLP fusion protein, MFI; unit taken from the concentration axis; remark: listed apart in the source
[12] = target: T2, human long-form TSLP protein (Acro, …); assay: ELISA on coated human long-form TSLP, OD450; unit taken from the concentration axis; remark: listed apart in the source
[13] = target: T1, human long form TSLP expressed on cell …; assay: FACS on cells expressing the membrane human long-form TSLP fusion protein, MFI; unit taken from the concentration axis; remark: listed apart in the source
[14] = target: T1, human long form TSLP expressed on cell …; assay: FACS on cells expressing the membrane human long-form TSLP fusion protein, MFI; rising binding curve, but the table column is headed IC50; unit taken from the concentration axis

T1 sequence (chain, as listed by the source): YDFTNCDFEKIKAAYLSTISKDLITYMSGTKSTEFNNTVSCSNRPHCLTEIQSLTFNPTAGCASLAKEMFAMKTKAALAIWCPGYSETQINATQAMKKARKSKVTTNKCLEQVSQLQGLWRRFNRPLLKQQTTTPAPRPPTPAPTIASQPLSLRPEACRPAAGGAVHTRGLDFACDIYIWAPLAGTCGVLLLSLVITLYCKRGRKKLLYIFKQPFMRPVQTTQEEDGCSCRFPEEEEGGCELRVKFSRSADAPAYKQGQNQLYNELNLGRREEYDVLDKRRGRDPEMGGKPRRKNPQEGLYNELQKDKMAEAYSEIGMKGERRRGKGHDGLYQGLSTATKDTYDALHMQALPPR

B1: 39H11Z11 (antibody, human IgG2, V domains shown)
VH: QVQLVQSGAEVKKPGASVKVSCKASGYAFSSYWMNWVRQAPGQGLEWMGQIFPGDGETNYNGKFKGRVTMTRDTSTSTVYMELSSLRSEDTAVYYCARGGYVNFLYAMDYWGQGTTVTVSS
VL: EIVMTQSPATLSVSPGERATLSCSVSSSISSSNLHWYQQKPGQSPRPWIYGTSTLASGIPARFSGSGSGTEFTLTISSLQSEDFAVYYCQQWSSYPLTFGGGTKVEIK
EC50 [1]: 0.129 µg/mL

B2: 35G12Z01 (antibody, human IgG2, V domains shown)
VH: QVQLVQSGAEVKKPGASVKVSCKSSGYAFSSYWMNWVRQAPGQGLEWMGQIFPGDGDTTYNGNFKGRVTMTRDTSTSTVYMELSSLRSEDTAVYYCARSGFDYGYFYAMDYWGQGTTVTVSS
VL: EIVMTQSPATLSVSPGERATLSCSVSSSISSSNLHWYQQKPGQSPRPWIFGTSNLASGIPARFSGSGSGTEFTLTISSLQSEDFAVYYCQQWSSYPLTFGGGTKVEIK
EC50 [2]: 0.158 µg/mL

B3: 35G12Z02 (antibody, human IgG2, V domains shown)
VH: EVQLVQSGAEVKKPGESLKISCKSSGYAFSSYWINWVRQMPGKGLEWMGQIFPGDGDTTYNGNFKGQVTISADKSISTAYLQWSSLKASDTAMYYCARSGFDYGYFYAMDYWGQGTTVTVSS
VL: EIVMTQSPATLSVSPGERATLSCSVSSSISSSNLHWYQQKPGQSPRPWIFGTSNLASGIPARFSGSGSGTEFTLTISSLQSEDFAVYYCQQWSSYPLTFGGGTKVEIK
EC50 [2]: 0.174 µg/mL

B4: mAb35G12 (antibody)
heavy: QVQLVQSGAEVKKPGSSVKVSCKSSGYAFSSYWINWVRQAPGQGLEWMGQIFPGDGDTTYNGNFKGRVTITADKSTSTAYMELSSLRSEDTAVYYCARSGFDYGYFYAMDYWGQGTTVTVSSASTKGPSVFPLAPCSRSTSESTAALGCLVKDYFPEPVTVSWNSGALTSGVHTFPAVLQSSGLYSLSSVVTVPSSSLGTKTYTCNVDHKPSNTKVDKRVESKYGPPCPPCPAPEAAGGPSVFLFPPKPKDTLYITREPEVTCVVVDVSQEDPEVQFNWYVDGVEVHNAKTKPREEQFNSTYRVVSVLTVLHQDWLNGKEYKCKVSNKGLPSSIEKTISKAKGQPREPQVYTLPPSQEEMTKNQVSLTCLVKGFYPSDIAVEWESNGQPENNYKTTPPVLDSDGSFFLYSRLTVDKSRWQEGNVFSCSVMHEALHNHYTQKSLSLSLG
light: EIVMTQSPATLSVSPGERATLSCSVSSSISSSNLHWYQQKPGQSPRPWIFGTSNLASGIPARFSGSGSGTEFTLTISSLQSEDFAVYYCQQWSSYPLTFGGGTKVEIK
notes: not shown: human kappa light chain constant region ('its corresponding light chain vector')
EC50 [3]: 0.206 µg/mL
EC50 [4]: ~0.384 µg/mL
EC50 [5]: 0.122 µg/mL
EC50 [6]: ~51.9 µg/mL
Kd [7]: 1.98 nM
binding result [8]: no binding (tested: about 20 µg/mL)

B5: mAb39H11 (antibody, IgG4)
heavy: QVQLVQSGAEVKKPGSSVKVSCKASGYAFSSYWMNWVRQAPGQGLEWMGQIFPGDGETNYNGKFKGRVTITADKSTSTAYMELSSLRSEDTAVYYCARGGYVNFLYAMDYWGQGTTVTVSSASTKGPSVFPLAPCSRSTSESTAALGCLVKDYFPEPVTVSWNSGALTSGVHTFPAVLQSSGLYSLSSVVTVPSSSLGTKTYTCNVDHKPSNTKVDKRVESKYGPPCPPCPAPEAAGGPSVFLFPPKPKDTLYITREPEVTCVVVDVSQEDPEVQFNWYVDGVEVHNAKTKPREEQFNSTYRVVSVLTVLHQDWLNGKEYKCKVSNKGLPSSIEKTISKAKGQPREPQVYTLPPSQEEMTKNQVSLTCLVKGFYPSDIAVEWESNGQPENNYKTTPPVLDSDGSFFLYSRLTVDKSRWQEGNVFSCSVMHEALHNHYTQKSLSLSLG
light: EIVMTQSPATLSVSPGERATLSCSVSSSISSSNLHWYQQKPGQSPRPWIYGTSTLASGIPARFSGSGSGTEFTLTISSLQSEDFAVYYCQQWSSYPLTFGGGTKVEIK
notes: as for B4
EC50 [3]: 0.153 µg/mL
EC50 [9]: ~0.134 µg/mL
EC50 [10]: ~23.8 µg/mL
EC50 [5]: 0.149 µg/mL
Kd [7]: 2.1 nM
binding result [8]: no binding (tested: about 20 µg/mL)

B6: 39H11Z07 (antibody, human IgG2, kappa)
heavy: QVQLVQSGAEVKKPGSSVKVSCKASGYAFSSYWMNWVRQAPGQGLEWMGQIFPGDGETNYNGKFKGRVTITADKSTSTAYMELSSLRSEDTAVYYCARGGYVNFLYAMDYWGQGTTVTVSSASTKGPSVFPLAPCSRSTSESTAALGCLVKDYFPEPVTVSWNSGALTSGVHTFPAVLQSSGLYSLSSVVTVPSSNFGTQTYTCNVDHKPSNTKVDKTVERKCCVECPPCPAPPVAGPSVFLFPPKPKDTLMISRTPEVTCVVVDVSHEDPEVQFNWYVDGVEVHNAKTKPREEQFNSTFRVVSVLTVVHQDWLNGKEYKCKVSNKGLPAPIEKTISKTKGQPREPQVYTLPPSREEMTKNQVSLTCLVKGFYPSDISVEWESNGQPENNYKTTPPMLDSDGSFFLYSKLTVDKSRWQQGNVFSCSVMHEALHNHYTQKSLSLSPGK
light: EIVMTQSPATLSVSPGERATLSCSVSSSISSSNLHWYQQKPGQSPRPWIYGTSTLASGIPARFSGSGSGTEFTLTISSLQSEDFAVYYCQQWSSYPLTFGGGTKVEIKRTVAAPSVFIFPPSDEQLKSGTASVVCLLNNFYPREAKVQWKVDNALQSGNSQESVTEQDSKDSTYSLSSTLTLSKADYEKHKVYACEVTHQGLSSPVTKSFNRGEC
notes: also called 39H11Z07-IgG2
EC50 [11]: 0.079 µg/mL

B7: 35G12Z03 (antibody, human IgG2, kappa)
heavy: QVQLVQSGAEVKKPGSSVKVSCKSSGYAFSSYWINWVRQAPGQGLEWMGQIFPGDGDTTYNGNFKGRVTITADKSTSTAYMELSSLRSEDTAVYYCARSGFDYGYFYAMDYWGQGTTVTVSSASTKGPSVFPLAPCSRSTSESTAALGCLVKDYFPEPVTVSWNSGALTSGVHTFPAVLQSSGLYSLSSVVTVPSSNFGTQTYTCNVDHKPSNTKVDKTVERKCCVECPPCPAPPVAGPSVFLFPPKPKDTLMISRTPEVTCVVVDVSHEDPEVQFNWYVDGVEVHNAKTKPREEQFNSTFRVVSVLTVVHQDWLNGKEYKCKVSNKGLPAPIEKTISKTKGQPREPQVYTLPPSREEMTKNQVSLTCLVKGFYPSDISVEWESNGQPENNYKTTPPMLDSDGSFFLYSKLTVDKSRWQQGNVFSCSVMHEALHNHYTQKSLSLSPGK
light: EIVMTQSPATLSVSPGERATLSCSVSSSISSSNLHWYQQKPGQSPRPWIFGTSNLASGIPARFSGSGSGTEFTLTISSLQSEDFAVYYCQQWSSYPLTFGGGTKVEIKRTVAAPSVFIFPPSDEQLKSGTASVVCLLNNFYPREAKVQWKVDNALQSGNSQESVTEQDSKDSTYSLSSTLTLSKADYEKHKVYACEVTHQGLSSPVTKSFNRGEC
notes: also called 35G12Z03-IgG2
EC50 [2]: 0.159 µg/mL

B8: Chi39H11 (antibody, human IgG2, V domains shown)
VH: QVQLQQSGAELVRPGSSVKISCKASGYAFSSYWMNWVKQRPGQGLEWIGQIFPGDGETNYNGKFKGKATLTADKSSSTAYMQLSSLTSEDSAVYFCARGGYVNFLYAMDYWGQGTSVTVSS
VL: EIVLTQSPALMAASPGEKVTITCSVSSSISSSNLHWYQQKSETSPKPWIYGTSTLASGVPVRFSGSGSGTSYSLTISSMEAEDAATYYCQQWSSYPLTFGAGTKLELK
notes: also called 39H11 chimeric antibody
EC50 [11]: 0.0953 µg/mL
EC50 [12]: 0.0325 µg/mL
EC50 [13]: 0.228 µg/mL
EC50 [1]: 0.111 µg/mL

B9: Chi35G12 (antibody, human IgG2, V domains shown)
VH: QVQLQQSGAELVRPGSSVKISCKSSGYAFSSYWMNWVKQRPGQGLEWIGQIFPGDGDTTYNGNFKGKTTLTADKSSNTAYMQLSSLTSEDSAVYFCARSGFDYGYFYAMDYWGQGTSVTVSS
VL: EIVLTQSPTLMAASPGEKVTITCSVSSSISSSNLHWYQQKSETSPKPWIFGTSNLASGVPVRFSGSGSGTSYSLTISNMEAEDAATYYCQQWSSYPLTFGAGTKLELK
notes: also called 35G12 chimeric antibody
EC50 [14]: 0.403 µg/mL
EC50 [2]: 0.173 µg/mL
